Article PMC10942789, “Biomolecular condensates can both accelerate and suppress aggregation of α-synuclein” (Science Advances, 2022)

Target: the molecule itself
Assay: thioflavin T aggregation kinetics + transmission electron microscopy of fibrils; self-association into amyloid fibrils; 40 uM FL-αSyn or αSyn-108, or 160 uM NACore; 50 mM Hepes (pH 7.4), 100 mM NaCl, 100 uM EDTA, 20 uM ThT, 37°C, continuous linear shaking; without coacervates (reference), with supernatant or with coacervate droplets

B1: NACore peptide (αSyn-68-78) (peptide)
peptide: GAVVTGVTAVA
notes: alpha-synuclein residues 68-78, from the non-amyloid-β component; source: synthetic peptide; bought: CASLO ApS (Denmark)
binding result: binds
